According to patent publication US20100035363A1 (TIBOTEC PHARMACEUTICALS, published 2010):

What was measured:
biotin-labeled RSV-IQN57 = target: T1, biotin-labeled RSV-IQN57 (Respiratory Syncytial Virus (F1 part), biotin label (position not stated in the example); captured on streptavidin-allophycocyanin in the assay); test: time-resolved FRET competition, IQN57-APC/C45-Eu assay; competitor C45-Eu
T1 construct: Synthetic peptide; In the assay it was pre-mixed with streptavidin-APC (final 100 nM IQN57-biotin, 10 nM streptavidin-APC); also called IQN57-biotin; IQN57-APC
T1 peptide: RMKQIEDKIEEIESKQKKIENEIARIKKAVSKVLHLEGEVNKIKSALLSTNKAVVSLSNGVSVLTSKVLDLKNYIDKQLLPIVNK

biotin-labeled RSV-IQN51 = target: T2, biotin-labeled RSV-IQN51 (Respiratory Syncytial Virus (F1 part), biotin label (position not stated in the example); captured on streptavidin-allophycocyanin in the assay); test: time-resolved FRET competition, IQN51-APC/C39-Eu assay; competitor C39-Eu
T2 construct: Synthetic peptide; In the assay it was pre-mixed with streptavidin-APC (final 100 nM IQN51-biotin, 10 nM streptavidin-APC); also called IQN51-biotin; IQN51-APC

Binder | IC50 (biotin-labeled RSV-IQN57) | IC50 (biotin-labeled RSV-IQN51)
VFPSDEFDASISQVNEKINQSLAFIRKSDELLHNVNAGK [RSV-C39] | 64 nM | 76 nM
NFYDPLVFPSDEFDASISQVNEKINQSLAFIRKSDELLHNVNAGK [RSV-C45] | 74 nM | 76 nM
